The target in series [1] is T1, VapB-1 (Haemophilus influenzae (nontypeable, R2866)) (UniProt E4QWH3).
T1 sequence: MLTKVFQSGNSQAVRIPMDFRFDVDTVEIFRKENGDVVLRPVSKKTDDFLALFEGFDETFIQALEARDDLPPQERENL
Nature of the series: DNase I footprinting. The conditions noted are these: EMSA: 20 mM HEPES pH 7.5, 100 mM NaCl, 0.1 mM EDTA, 1 mM DTT, 50 ug/mL BSA, 5% glycerol, 1 nM DNA, 25 C (gel 4 C); DNase I: 25 mM Tris-HCl pH 7.4, 70 mM KCl …. A general note: A gel shift assay detects complexes by their altered migration in electrophoresis.

In series [2] the target is T2, VapB-1 (Haemophilus influenzae (nontypeable, …, UniProt E4QWH3 1-78)).
T2 sequence: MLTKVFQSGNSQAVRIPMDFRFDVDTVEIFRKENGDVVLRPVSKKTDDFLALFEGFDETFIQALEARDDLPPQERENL
The series is described as follows: EMSA; 300:1; EMSA: 20 mM HEPES pH 7.5, 100 mM NaCl, 0.1 mM EDTA, 1 mM DTT, 50 ug/mL BSA, 5% glycerol, 1 nM DNA, 25 C (gel 4 C); DNase I: 25 mM Tris-HCl pH 7.4, 70 mM KCl, 7. The note with it: protein: recombinant; tags: C-terminal polyhistidine (pET24b); chain copies: 2; blunt.

Series [3] has as its target T2, VapB-1. Nature of the series: EMSA; up to 300:1; EMSA: 20 mM HEPES pH 7.5, 100 mM NaCl, 0.1 mM EDTA, 1 mM DTT, 50 ug/mL BSA, 5% glycerol, 1 nM DNA, 25 C (gel 4 C); DNase I: 25 mM Tris-HCl pH 7.4, 70 mM KCl, 7. The conditions noted are these: protein: recombinant; tags: C-terminal polyhistidine (pET24b); chain copies: 2; label: 5'-32P sense strand; blunt.

For “GTTAGGATCCTGAAACACTTTAGTAAGCATATTTACCCTCTCGTATATACTATGTATTTAATAAGTATATACTAATCATTTCAATTGCTGTATGCAAGTAAGAAGATCAAATTACCGTTGTTTTATTTAACCGCAATCATCGAGCGAATTCTAA (double strand) [153 bp vapBC-1 locus control region]”, the binding entry in series [1] is recorded as “no binding”.

B1: 50US (dsDNA)
DNA 1: AACAACGGTAATTTGATCTTCTTACTTGCATACAGCAATTGAAATGATTA
DNA 2: TAATCATTTCAATTGCTGTATGCAAGTAAGAAGATCAAATTACCGTTGTT
B1: the binding result with VapB-1 [2] was “no binding”.

B2: 50TIR (dsDNA)
DNA 1: AATGATTAGTATATACTTATTAAATACATAGTATATACGAGAGGGTAAAT
DNA 2: ATTTACCCTCTCGTATATACTATGTATTTAATAAGTATATACTAATCATT
Consider B2, for which, in the series with VapB-1 [3], the binding result is given as “no binding”.

Source of the values: PMC3302801, “Regulation of the vapBC-1 Toxin-Antitoxin Locus in Nontypeable Haemophilus influenzae”.
